# Reference: publication PMC8182377, “Tying up the Loose Ends: A Mathematically Knotted Protein” (Frontiers in Chemistry, 2021)
# What was measured:
# [1] = biological target: T1, cYibK (cYibK_lo, backbone-cyclized PaYibK) (Pseudomonas aeruginosa, UniProt Q9HU57); assay: isothermal titration calorimetry; assay type: binding
# T1 construct: gene trmL; recombinant in E. coli ER2566 from pITRSF3D (SUMO fusion cut, LPETG-H6), N and C termini joined by S. aureus sortase A through a nine-residue linker, His-tag removed by ligation; backbone-cyclized, homodimer
# [2] = biological target: T2, lYibK (linear PaYibK_lo) (Pseudomonas aeruginosa, UniProt Q9HU57); assay: isothermal titration calorimetry; assay type: binding
# T2 construct: gene trmL; recombinant in E. coli ER2566 from pBHRSF260, N-terminal His-SUMO fusion cut by Ulp1; homodimer
# T2 sequence (Q9HU57 1-153): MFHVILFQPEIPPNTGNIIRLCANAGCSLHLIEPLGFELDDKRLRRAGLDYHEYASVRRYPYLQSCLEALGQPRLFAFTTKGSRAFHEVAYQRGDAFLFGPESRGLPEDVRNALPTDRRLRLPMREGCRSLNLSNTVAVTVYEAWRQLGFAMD
# [3] = biological target: backbone-cyclized YibK from Pseudomonas aeruginosa with a nine-residue linker (sortase A ligation of PaYibK_lo) (Pseudomonas aeruginosa); assay: SEC-SAXS; native conditions: buffer A (50 mM Tris-HCl pH 7.4, 0.5 mM EDTA, 5 mM DTT) without urea, 2% glycerol; protein at 10 mg/ml; online size-exclusion column (Bio SEC-3)
# [4] = biological target: linear form of YibK from Pseudomonas aeruginosa with the identical sequence as PaYibK_lo / cYibK (Pseudomonas aeruginosa); assay: as above
# [5] = biological target: wild-type YibK from Pseudomonas aeruginosa in its linear form (Pseudomonas aeruginosa); assay: crystal structure; PaYibK: 0.15 M ammonium sulfate, 0.9 M lithium sulfate, 0.1 M sodium citrate pH 5.6, 2.0 Å; cYibK: 0.3 M ammonium sulfate, 0.1 M MES pH 6.0, 25% PEG MME 5,000, 2.2 Å
compound,measurement,setting,value
Nc1ncnc2c1ncn2[C@@H]1O[C@H](CSCC[C@H](N)C(=O)O)[C@@H](O)[C@H]1O [S-adenosyl-L-homocysteine],Kd,[1],8.93 ± 0.03 µM
same,Kd,[2],8.8 ± 0.01 µM
backbone-cyclized YibK from Pseudomonas aeruginosa with a nine-residue linker (sortase A ligation of PaYibK_lo) (enzyme),stoichiometry N,[3],2
linear form of YibK from Pseudomonas aeruginosa with the identical sequence as PaYibK_lo / cYibK (enzyme),stoichiometry N,[4],2
wild-type YibK from Pseudomonas aeruginosa in its linear form (enzyme),stoichiometry N,[5],2
